Laboratory results reported in publication PMC10417383, “DNA-Binding Activity of CAMTA3 Is Essential for Its Function: Identification of Critical Amino Acids for Its Transcriptional Activity”.
Changes are numbered by the printed parent chain.

Key:
Test in all cases: EMSA; 500 ng protein; 1X LightShift EMSA binding buffer, 50 ng/ul poly(dI-dC), 20 fmol probe in 20 ul, +/- 4 pmol unlabeled DNA, room temperature 30 min; 5% native PAGE, 0.5X TBE; pH and salt not given
Conditions in all cases: protein: recombinant; tags: His (pET28a); label: 3'-biotin on strand 1; blunt
CAMTA3 CG-1 M3 = biological target: T1, CAMTA3 CG-1 M3 (Arabidopsis thaliana, UniProt Q8GSA7 1-153, H88A)
T1 sequence: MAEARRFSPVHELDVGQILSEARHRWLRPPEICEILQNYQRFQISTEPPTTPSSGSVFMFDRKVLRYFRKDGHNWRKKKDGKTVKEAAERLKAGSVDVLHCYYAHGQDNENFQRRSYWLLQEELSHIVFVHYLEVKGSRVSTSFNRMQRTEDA

CAMTA3 CG-1 M6 = biological target: T2, CAMTA3 CG-1 M6 (Arabidopsis thaliana, UniProt Q8GSA7 1-153, Y132A)
T2 sequence: T1 sequence with A88H, Y132A

CAMTA3 CG-1 M2 = biological target: T3, CAMTA3 CG-1 M2 (Arabidopsis thaliana, UniProt Q8GSA7 1-153, W75A)
T3 sequence: T1 sequence with W75A, A88H

CAMTA3 CG-1 M4 = biological target: T4, CAMTA3 CG-1 M4 (Arabidopsis thaliana, UniProt Q8GSA7 1-153, Y102A;Y103A)
T4 sequence: T1 sequence with A88H, Y102A, Y103A

CAMTA3 CG-1 M1 = biological target: T5, CAMTA3 CG-1 M1 (Arabidopsis thaliana, UniProt Q8GSA7 1-153, W26A)
T5 sequence: T1 sequence with W26A, A88H

Measured: binding result

B1: PDF1.4 promoter probe (dsDNA)
DNA 1: CGTGAAAGTCACGCGCCAAGAACAAA
DNA 2: TTTGTTCTTGGCGCGTGACTTTCACG
no binding: CAMTA3 CG-1 M3 | CAMTA3 CG-1 M6 | CAMTA3 CG-1 M2 | CAMTA3 CG-1 M4 | CAMTA3 CG-1 M1
